Results on 3 molecules are retold here after patent US20090130133A1 (VAXON BIOTECH, published 2009).

Where only a bound is given, the exact number is not on record here.

Test [1] deals with T1, HLA-A*0201 (human).
T1 construct: whole, on cells; MHC class I molecule on T2 cells; also called HLA-A2
The experiment in a line: T2 cells loaded with 100 µM peptide, Brefeldin A, decay of HLA-A*0201 labelling (mAb BB7.2) over 0-6 h. How it is done: (§1) The protocol used to measure relative affinity (RA) is described in detail elsewhere (Tourdot et al., 2000). […] The cells were then treated with Brefeldin A for 1 h, washed, incubated at 37° C. for 0, 2, 4 and 6 hours, and labeled with mAb BB7.2.

Test [2] concerns the target T1, HLA-A*0201. The test can be described thus: T2 cell HLA-A*0201 stabilisation, flow cytometry with mAb BB7.2; peptide concentration / reference peptide concentration giving 20% HLA-A*0201 expression. How it is done: as §1
For orientation: In flow cytometry, cells or beads pass a laser one at a time.

B1: TERT988Y (peptide)
peptide: YLQVNSLQTV
notes: also called optimized variant of the cryptic peptide TERT988
In the case of B1, the “DC50 (half-life of the HLA/peptide complex)” value in the test with HLA-A*0201 [1] is greater than 6 h. Moreover, the “RA (relative affinity)” value in the test with HLA-A*0201 [2] is 2.1 ratio to reference peptide HIVpol589 (reference = 1).

B2: MAGE-A248V9 (peptide)
peptide: YLEYRQVPV
notes: also called optimized variant of MAGE-A248D9/G9
Turning to B2, the “DC50 (half-life of the HLA/peptide complex)” value with HLA-A*0201 [1] was determined as 4 h. Moreover, the “RA (relative affinity)” value with HLA-A*0201 [2] is 1.8 ratio to reference peptide HIVpol589 (reference = 1).

B3: HER-2/neu402Y (peptide)
peptide: YLEEITGYL
notes: also called optimized variant of the cryptic peptide HER-2/neu402
For B3, the “DC50 (half-life of the HLA/peptide complex)” value with HLA-A*0201 [1] stood at 4 h. Moreover, the “RA (relative affinity)” value with HLA-A*0201 [2] is 3.6 ratio to reference peptide HIVpol589 (reference = 1).
